The source of these data is publication PMC11516162, “A Novel Antigen Design Strategy to Isolate Single‐Domain Antibodies that Target Human Nav1.7 and Reduce Pain in Animal Models” (Advanced Science, 2024).

For assay [1], the target named is Mouse FC5-DIE3IR (llama | mouse). As to the kind of experiment: SPR; Biacore T200, 25 °C, HBS-EP+ (10 mM HEPES pH 7.4, 150 mM NaCl, 3 mM EDTA, 0.05% P20); FC5-DIE3IR (human, mouse, rat) and FC5 amine coupled (300-400 RU) on CM5; SEC-purified monomeric VHH DI-D flowed over at 312 nM to 5 µM, single cycle kinetics; KD by steady state analysis. A general note: Surface plasmon resonance follows binding to a sensor surface in real time, without labels.

The target of assay [2] is T1, human FC5‐DIE3IR (Homo sapiens, chimera, glycosylated (about up to 50%)).
T1 construct: llama VHH FC5 from its N-terminus to residue 101 (three CDR3 residues kept on the N-terminal side of the graft); human Nav1.7 alpha subunit, 70 residues of extracellular loop 3 of domain DI (DIE3IR), put in place of Ser102-Leu107 of the CDR3 of FC5; llama VHH FC5 from residue 108 to its C-terminus (four CDR3 residues kept on the C-terminal side of the graft); Two disulfide bonds in the grafted …
The description is as above.

A further assay has as its target T2, rat FC5‐DIE3IR (Rattus norvegicus, UniProt O08562, chimera).
T2 construct: llama VHH FC5 N-terminal part, as the first part of m2; rat Nav1.7 alpha subunit, the stretch equivalent to the human DIE3IR domain; llama VHH FC5 C-terminal part, as the last part of m2; source: cloned as the human one (pTT5); SEC purified (Superdex 75) for SPR
Put plainly: SPR; Biacore T200, 25 °C, HBS‐EP+ (10 mM HEPES pH 7.4, 150 mM NaCl, 3 mM EDTA, 0.05% P20); FC5‐DIE3IR and FC5 amine coupled (300–400 RU) on CM5; VHH DI‐D monomer fractions flowed at 312 nM to 5 µM, single cycle kinetics; KD by steady state analysis. To be noted: both partners purified.

Another assay deals with T3, mouse FC5‐DIE3IR (Mus musculus, UniProt Q62205, chimera).
T3 construct: llama VHH FC5 N-terminal part, as the first part of m2; mouse Nav1.7 alpha subunit, the stretch equivalent to the human DIE3IR domain; llama VHH FC5 C-terminal part, as the last part of m2; source: cloned as the human one (pTT5); SEC purified (Superdex 75) for SPR
The assay is described as above. Particulars: both partners purified.

The target of assay [3] is T1, human FC5‐DIE3IR. The assay is described as above. To be noted: both partners purified.
Assay [4] concerns the target rat, mouse and human FC5‐DIE3IR. The assay is described as above.
In assay [5] the target is mouse Nav1.7 (mouse (endogenous in CD-1 mice)) (UniProt Q62205).
Assay [6] deals with Mouse FC5-DIE3IR (llama | mouse). Put plainly: SPR; Biacore T200, 25 °C, HBS-EP+ (10 mM HEPES pH 7.4, 150 mM NaCl, 3 mM EDTA, 0.05% P20); FC5-DIE3IR (human, mouse, rat) and FC5 amine coupled (300-400 RU) on CM5; SEC-purified monomeric VHH DI-D flowed over at 312 nM to 5 µM, single cycle kinetics; KD by steady state analysis. This is another data set of the same source.
The target in assay [7] is Rat FC5-DIE3IR (llama | rat). Described as above.
Assay [8] concerns the target T1, human FC5‐DIE3IR. Described as above. This is another data set of the same source.
Assay [9] has as its target Mouse FC5-DIE3IR (llama | mouse). The assay is described as above. The source holds these as a separate data set.
The target in assay [10] is Rat FC5-DIE3IR (llama | rat). The description is as above. The source holds these as a separate data set.
The target in assay [11] is T1, human FC5‐DIE3IR. The assay is described as above. The source holds these as a separate data set.

Where two headings read alike, the source gives them in different places.

B1: VHH DI‐D (VHH)
VHH: QVKLEESGGGLVQPGGSLKLSCVASGFAFSSAPMDWVRKAPGKDVEWLSTIESDQDHTIYYANSVKGRFTISRDDVQNILYLQMNDLKIEDTATYYCQKRGEKKTRGQGTQVTVSS
notes: CDR3 of VHH DI-D as printed in the discussion; Isolated from a naive llama, alpaca and camel phage library (LAC-M) by panning on FC5-DIE3IR; source: E. coli, purified by IMAC (gene synthesized and cloned by GenScript; pSJF2 expression vector); SEC-purified monomer fractions for SPR
Take B1: the Kd was 1680 nM in [1]; 1710 nM in the assay with human FC5‐DIE3IR [2]; 1560 to 1720 nM in assay [4]; 1660 nM in assay [6]; 1560 nM in assay [7]; 1700 nM with human FC5‐DIE3IR [8]. Besides, the values for the Kd (in [9]; in assay [10]; with human FC5‐DIE3IR [11]) were 1700 nM, 1590 nM and 1720 nM, respectively. The binding result in the assay with rat FC5‐DIE3IR, with mouse FC5‐DIE3IR and in the assay with human FC5‐DIE3IR [3] was “binds” each time. Further, in [5], the time mice spend in pain behaviors, mouse OD1 model, VHH DI‐D (50 µg) pre‐mixed 30 min with FC5‐DIE3IR (200 µg): no reduction was determined as 312 s.

Usually Kd stands for the free concentration of one partner at which half of the binding sites on the other are occupied at equilibrium, for simple one-to-one binding. A high value points to weaker binding.
